B1: C-C chemokine receptor type 2 (Homo sapiens), P41597-2 (parent)
chain: MLSTSRSRFIRNTNESGEEVTTFFDYDYGAPCHKFDVKQIGAQLLPPLYSLVFIFGFVGNMLVVLILINCKKLKCLTDIYLLNLAISDLLFLITLPLWAHSAANEWVFGNAMCKLFTGLYHIGYFGGIFFIILLTIDRYLAIVHAVFALKARTVTFGVVTSVITWLVAVFASVPGIIFTKCQKEDSVYVCGPYFPRGWNNFHTIMRNILGLVLPLLIMVICYSGILKTLLRCRNEKKRHRAVRVIFTIMIVYFLFWTPYNIVILLNTFQEFFGLSNCESTSQLDQATQVTETLGMTHCCINPIIYAFVGEKFRRYLSVFFRKHITKRFCKQCPVFYRETVDGVTSTNTPSTGEQEVSAGL
partner: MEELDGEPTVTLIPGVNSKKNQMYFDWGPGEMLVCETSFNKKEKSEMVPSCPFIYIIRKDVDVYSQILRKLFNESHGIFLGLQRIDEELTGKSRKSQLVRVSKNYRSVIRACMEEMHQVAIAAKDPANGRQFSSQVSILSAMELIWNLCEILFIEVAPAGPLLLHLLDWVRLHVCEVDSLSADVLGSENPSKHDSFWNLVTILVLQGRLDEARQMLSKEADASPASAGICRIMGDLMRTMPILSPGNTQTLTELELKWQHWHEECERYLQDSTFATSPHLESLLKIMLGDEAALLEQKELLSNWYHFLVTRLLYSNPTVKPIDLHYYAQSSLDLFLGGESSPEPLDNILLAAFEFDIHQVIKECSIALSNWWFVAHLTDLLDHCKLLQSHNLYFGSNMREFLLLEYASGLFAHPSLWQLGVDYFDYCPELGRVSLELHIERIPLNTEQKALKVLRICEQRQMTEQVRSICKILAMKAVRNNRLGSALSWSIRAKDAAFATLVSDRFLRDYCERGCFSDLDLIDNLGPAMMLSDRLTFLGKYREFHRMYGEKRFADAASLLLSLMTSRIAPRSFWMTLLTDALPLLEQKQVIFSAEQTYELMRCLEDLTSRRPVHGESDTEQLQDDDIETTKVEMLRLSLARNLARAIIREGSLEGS

Variants of: B1
Conditions: with nup85_human NUP85, Q9BW27

Variant | effect of a mutation on the interaction
MLSTSRSRFIRNTNESGEEVTTFFDYDYGAPCHKFDVKQIGAQLLPPLYSLVFIFGFVGNMLVVLILINCKKLKCLTDIYLLNLAISDLLFLITLPLWAHSAANEWVFGNAMCKLFTGLYHIGYFGGIFFIILLTIDRYLAIVHAVFALKARTVTFGVVTSVITWLVAVFASVPGIIFTKCQKEDSVYVCGPYFPRGWNNFHTIMRNILGLVLPLLIMVICYSGILKTLLRCRNEKKRHRAVRVIFTIMIVYFLFWTPYNIVILLNTFQEFFGLSNCESTSQLDQATQVTETLGMTHCCINPIIYAFVGEKFRRYTSVFFRKHITKRFCKQCPVFYRETVDGVTSTNTPSTGEQEVSAGL [L316T] | decreasing interaction strength

Variants of: B1
Conditions: with nup85_human NUP85, Q9BW27
Remark: another data set of the same source

Variant | effect of a mutation on the interaction
MLSTSRSRFIRNTNESGEEVTTFFDYDYGAPCHKFDVKQIGAQLLPPLYSLVFIFGFVGNMLVVLILINCKKLKCLTDIYLLNLAISDLLFLITLPLWAHSAANEWVFGNAMCKLFTGLYHIGYFGGIFFIILLTIDRYLAIVHAVFALKARTVTFGVVTSVITWLVAVFASVPGIIFTKCQKEDSVYVCGPYFPRGWNNFHTIMRNILGLVLPLLIMVICYSGILKTLLRCRNEKKRHRAVRVIFTIMIVYFLFWTPYNIVILLNTFQEFFGLSNCESTSQLDQATQVTETLGMTHCCINPIIYAFVGEKFRRYLSVDFRKHITKRFCKQCPVFYRETVDGVTSTNTPSTGEQEVSAGL [F319D] | decreasing interaction strength

— IntAct's records for PubMed 25283965
